Experimental data as given in patent publication US20140271701A1.

Biological target: serum antibodies (IgG) of Sardinian T1D patients, Example 1 (n=34; Ab+ sera) (human)
Experiment: competition ELISA on MAP3865c125-133-coated plates, sera pre-adsorbed with saturating peptide

With MIIVSSCAV [ZnT8178-186 peptide (…)] as the binder, how does the percent inhibition read?
Its percent inhibition is 57 to 89%.
